Measurements reported in publication PMC6711812.

Molecular target: PpCESA3 (MbYTH bait and prey fusions) (Physcomitrella patens) (UniProt A9RGN5)
Test: two-hybrid

With “PpCESA3 (MbYTH bait and prey fusions) (from UniProt A9RGN5 1-1093) (natural protein)” as the substance, how does the colony growth as percent of the positive control read?
The colony growth as percent of the positive control was 20%.
